{
  "source": "paper doi:10.1101/2023.01.30.525655",
  "key": {"[1]": {"molecular_target": "MDL1-6xHis (Arabidopsis thaliana MIF/D-DT-like protein 1, hexahistidine-tagged) (Arabidopsis thaliana)", "assay": "crystal structure"}, "[2]": {"molecular_target": "MIF-6xHis (human macrophage migration inhibitory factor, hexahistidine-tagged) (human) (UniProt P14174)", "sequence (P14174 2-115)": "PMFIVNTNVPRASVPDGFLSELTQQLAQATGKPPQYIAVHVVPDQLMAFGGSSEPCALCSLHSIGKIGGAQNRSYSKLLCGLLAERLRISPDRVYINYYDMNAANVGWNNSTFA", "assay": "SEC"}, "[3]": {"molecular_target": "MDL1-6xHis (Arabidopsis thaliana MIF/D-DT-like protein 1, hexahistidine-tagged) (Arabidopsis thaliana)", "assay": "SEC"}, "[4]": {"molecular_target": "RED-NHS-MIF-6xHis (human MIF-6xHis labelled with the RED-NHS dye) (human) (UniProt P14174)", "sequence (P14174 2-115)": "as above", "assay": "MST"}},
  "data": [
    {"substance": "MDL1-6xHis (Arabidopsis thaliana MIF/D-DT-like protein 1, hexahistidine-tagged) (natural protein)", "values": [
      {"measurement": "stoichiometry N", "setting": "[1]", "value": 3},
      {"measurement": "fraction of the mixture in the hetero-hexamer", "setting": "[2]", "value": 0.33},
      {"measurement": "stoichiometry N", "setting": "[3]", "value": 3},
      {"measurement": "Kd", "setting": "[4]", "value": "< 5", "unit": "µM"}
    ]}
  ]
}
